{
  "source": "paper PMC4957108",
  "about": "“Impact of structural polymorphism for the Helicobacter pylori CagA oncoprotein on binding to polarity-regulating kinase PAR1b” (Scientific Reports, 2016)",
  "binders": {"B1": {"name": "PAR1b (39–364) (domain or fragment)", "chain": "not shown", "modifications": "C-terminal 6xHis tag left out"}, "B2": {"name": "PAR1b (39–364)-FLAG (domain or fragment)", "chain": "not shown"}, "B3": {"name": "PAR1b (39–364)-FLAG (domain or fragment)", "chain": "not shown", "modifications": "C-terminal FLAG-6xHis tag left out"}},
  "conditions_in_all_cases": "both partners purified",
  "key": {"[1]": {"target": "T1, CagA-2CM^W (Helicobacter pylori strain 26695, UniProt P55980 1-1186)", "T1 construct": "also called canonical Western ABC type CagA", "T1 sequence (looked up)": "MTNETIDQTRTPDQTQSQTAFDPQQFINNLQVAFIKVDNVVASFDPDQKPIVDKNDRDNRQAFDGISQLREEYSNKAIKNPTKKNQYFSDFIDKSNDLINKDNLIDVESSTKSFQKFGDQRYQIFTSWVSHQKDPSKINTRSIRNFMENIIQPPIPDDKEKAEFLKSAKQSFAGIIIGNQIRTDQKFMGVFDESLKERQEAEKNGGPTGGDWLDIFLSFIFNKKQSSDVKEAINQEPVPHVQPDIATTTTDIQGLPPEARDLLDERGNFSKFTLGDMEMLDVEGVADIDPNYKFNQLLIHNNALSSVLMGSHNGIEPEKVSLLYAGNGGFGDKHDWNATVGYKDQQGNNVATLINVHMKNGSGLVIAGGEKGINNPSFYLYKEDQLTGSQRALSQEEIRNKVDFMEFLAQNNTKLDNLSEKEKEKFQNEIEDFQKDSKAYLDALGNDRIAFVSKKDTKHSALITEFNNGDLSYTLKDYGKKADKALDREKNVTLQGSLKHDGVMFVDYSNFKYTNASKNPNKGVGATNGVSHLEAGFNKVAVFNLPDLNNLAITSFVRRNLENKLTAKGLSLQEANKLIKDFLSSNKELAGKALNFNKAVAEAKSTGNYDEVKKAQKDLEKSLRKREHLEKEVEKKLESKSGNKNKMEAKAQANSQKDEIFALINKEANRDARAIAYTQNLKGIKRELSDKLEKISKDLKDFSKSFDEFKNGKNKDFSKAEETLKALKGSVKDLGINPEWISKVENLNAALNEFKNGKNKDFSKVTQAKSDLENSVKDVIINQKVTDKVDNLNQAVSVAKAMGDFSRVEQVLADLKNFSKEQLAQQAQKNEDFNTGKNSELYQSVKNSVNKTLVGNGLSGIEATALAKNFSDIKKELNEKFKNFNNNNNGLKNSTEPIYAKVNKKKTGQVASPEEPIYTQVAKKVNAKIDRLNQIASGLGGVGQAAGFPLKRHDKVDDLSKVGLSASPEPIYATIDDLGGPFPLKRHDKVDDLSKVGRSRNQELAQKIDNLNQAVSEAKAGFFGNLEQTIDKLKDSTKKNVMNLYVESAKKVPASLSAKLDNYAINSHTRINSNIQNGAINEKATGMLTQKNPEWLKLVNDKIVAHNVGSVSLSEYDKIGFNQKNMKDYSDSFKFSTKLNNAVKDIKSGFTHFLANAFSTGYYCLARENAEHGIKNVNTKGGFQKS", "experiment": "SEC; Superdex 200 10/300 GL, HBS-P running buffer, 4 °C, 0.5 ml/min; CagA constructs alone or mixed with PAR1b (39–364) at a molar ratio of 1:1 or 1:2; fractions on SDS-PAGE, CBB bands quantified"}, "[2]": {"target": "GST-CagA-4CM^W (Helicobacter pylori strain NCTC11637)", "experiment": "pull-down; quantitative GST pull-down: GST-CagA on beads in a range of concentrations, fixed low concentration of PAR1b (39–364)-FLAG, GST-binding buffer with 0.01% Triton-X, 20 min at 4 °C, unbound PAR1b in the supernatant quantified, binding to GST control subtracted; apparent KD"}, "[3]": {"target": "GST-CagA-2CM^W (Helicobacter pylori strain 26695, UniProt P55980 1-1186)", "experiment": "pull-down; quantitative GST pull-down: GST-CagA on beads in a range of concentrations, fixed low concentration of PAR1b (39–364)-FLAG, GST-binding buffer with 0.01% Triton-X, 20 min at 4 °C, unbound PAR1b in the supernatant quantified, binding to GST control subtracted; apparent KD"}},
  "data": [
    {"binder": "B1", "values": [
      {"measurement": "stoichiometry N", "setting": "[1]", "result": 2, "unit": "PAR1b per CagA"}
    ]},
    {"binder": "B2", "values": [
      {"measurement": "Kd", "setting": "[2]", "result": 2.43, "unit": "nM"}
    ]},
    {"binder": "B3", "values": [
      {"measurement": "Kd", "setting": "[3]", "result": 26.6, "unit": "nM"}
    ]}
  ]
}
